Measured values reported in US20040146507A1 (Genentech, published 2004).

T1: rhesus CD11a (rhesus, UniProt H9Z8N3 26-1169)
T1 construct: whole, on cells; On rhesus peripheral blood lymphocytes or leukocytes; also called rhCD11a
T1 sequence: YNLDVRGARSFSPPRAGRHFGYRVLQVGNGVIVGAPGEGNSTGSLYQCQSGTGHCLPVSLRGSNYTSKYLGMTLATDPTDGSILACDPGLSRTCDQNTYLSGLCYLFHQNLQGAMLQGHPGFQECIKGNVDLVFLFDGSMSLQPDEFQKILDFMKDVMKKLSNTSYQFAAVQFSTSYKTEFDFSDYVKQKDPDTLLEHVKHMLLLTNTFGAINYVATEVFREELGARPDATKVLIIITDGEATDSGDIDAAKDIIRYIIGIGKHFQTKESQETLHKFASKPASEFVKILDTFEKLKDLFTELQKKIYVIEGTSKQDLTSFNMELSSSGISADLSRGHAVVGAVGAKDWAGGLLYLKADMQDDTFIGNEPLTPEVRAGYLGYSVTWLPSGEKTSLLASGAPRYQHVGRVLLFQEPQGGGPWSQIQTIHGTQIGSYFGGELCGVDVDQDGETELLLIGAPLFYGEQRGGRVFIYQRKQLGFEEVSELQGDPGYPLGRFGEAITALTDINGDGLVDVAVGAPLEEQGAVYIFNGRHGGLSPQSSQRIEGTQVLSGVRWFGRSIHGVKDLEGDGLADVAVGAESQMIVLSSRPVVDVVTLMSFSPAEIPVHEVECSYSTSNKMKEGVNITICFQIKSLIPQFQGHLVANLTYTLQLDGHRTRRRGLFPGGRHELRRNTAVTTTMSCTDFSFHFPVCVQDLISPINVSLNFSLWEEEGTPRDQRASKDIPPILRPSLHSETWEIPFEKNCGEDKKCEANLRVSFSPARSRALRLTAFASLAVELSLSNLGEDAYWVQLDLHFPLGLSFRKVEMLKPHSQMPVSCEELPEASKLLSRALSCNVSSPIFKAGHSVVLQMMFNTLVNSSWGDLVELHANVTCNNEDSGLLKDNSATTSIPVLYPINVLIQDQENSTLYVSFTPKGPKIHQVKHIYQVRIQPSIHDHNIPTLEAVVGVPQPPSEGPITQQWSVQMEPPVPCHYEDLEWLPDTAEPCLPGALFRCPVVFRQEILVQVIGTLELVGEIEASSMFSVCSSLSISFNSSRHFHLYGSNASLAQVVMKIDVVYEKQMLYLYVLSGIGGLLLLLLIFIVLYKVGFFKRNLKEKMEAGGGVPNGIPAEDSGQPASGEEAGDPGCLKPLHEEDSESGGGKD


Experiments:
human CD11a [1] = molecular target: T2, human CD11a (human, UniProt P20701 26-1170); assay: FACScan, Jurkat cells
T2 construct: whole, on cells; On Jurkat T-cells or human peripheral blood mononuclear cells, as part of LFA-1; also called CD11a on Jurkat cells; alpha subunit of LFA-1
Protocol: (§1) Aliquots of 10⁶ Jurkat T-cells were incubated with serial dilutions of humanized and control antibodies in PBS-0.1% BSA-10 mM sodium azide for 45 min at 4° C. The cells were washed and then incubated in fluorescein-conjugated goat anti-human F(ab′)₂ (Organon Teknika, Westchester, Pa.) for 45 min at 4° C. Cells were washed and analysed on a FACScan (Becton Dickinson, Mountain View, Calif.). 8×10³ cells were acquired by list mode and gated by forward light scatter versus side light scatter, thereby excluding dead cells and debris.

rhesus CD11a [2] = molecular target: T1, rhesus CD11a; assay: rhesus PBL binding
human CD11a [3] = molecular target: T2, human CD11a; assay: FACScan, Jurkat cells; remark: listed apart in the source
Protocol: as §1
Target sequence in this assay (P20701 26-1170): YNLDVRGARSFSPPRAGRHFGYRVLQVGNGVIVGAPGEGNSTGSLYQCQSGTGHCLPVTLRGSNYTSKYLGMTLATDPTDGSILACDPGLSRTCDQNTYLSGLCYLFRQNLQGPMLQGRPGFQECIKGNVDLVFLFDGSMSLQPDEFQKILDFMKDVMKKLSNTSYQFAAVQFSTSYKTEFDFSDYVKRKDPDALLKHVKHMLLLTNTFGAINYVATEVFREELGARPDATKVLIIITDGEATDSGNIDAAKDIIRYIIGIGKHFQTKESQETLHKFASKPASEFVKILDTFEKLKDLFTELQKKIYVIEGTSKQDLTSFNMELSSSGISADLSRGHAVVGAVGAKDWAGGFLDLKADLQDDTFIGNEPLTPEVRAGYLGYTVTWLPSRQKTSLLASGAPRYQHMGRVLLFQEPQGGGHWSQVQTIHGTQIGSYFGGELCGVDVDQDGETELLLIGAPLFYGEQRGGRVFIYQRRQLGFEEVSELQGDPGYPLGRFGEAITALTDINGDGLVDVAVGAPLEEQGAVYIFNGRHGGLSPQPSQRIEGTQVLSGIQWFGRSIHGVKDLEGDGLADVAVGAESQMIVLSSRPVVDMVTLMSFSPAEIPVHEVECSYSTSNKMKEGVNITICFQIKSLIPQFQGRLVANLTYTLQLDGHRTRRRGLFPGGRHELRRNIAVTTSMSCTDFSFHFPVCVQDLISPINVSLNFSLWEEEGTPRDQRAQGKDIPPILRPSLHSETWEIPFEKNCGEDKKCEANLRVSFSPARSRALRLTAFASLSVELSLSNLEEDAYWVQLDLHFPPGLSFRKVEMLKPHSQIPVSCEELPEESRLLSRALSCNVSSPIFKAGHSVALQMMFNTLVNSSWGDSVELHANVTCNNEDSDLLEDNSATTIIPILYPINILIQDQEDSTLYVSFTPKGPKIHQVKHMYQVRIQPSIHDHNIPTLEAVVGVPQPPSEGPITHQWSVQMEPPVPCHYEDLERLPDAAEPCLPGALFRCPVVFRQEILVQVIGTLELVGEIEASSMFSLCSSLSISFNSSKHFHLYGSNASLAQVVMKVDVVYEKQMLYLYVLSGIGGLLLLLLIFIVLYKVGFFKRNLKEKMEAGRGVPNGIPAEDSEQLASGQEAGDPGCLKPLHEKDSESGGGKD
To determine which CDR residues were involved in binding to human CD11a an alanine-scan (Cunningham et al., Science 244:1081 (1989)) was performed on the CDR residues of HuIgG1. Each mutant was tested for binding to CD11a on Jurkat cells. In the light chain only CDR-L3 contributes to binding.

rhesus CD11a [4] = molecular target: T1, rhesus CD11a; assay: rhesus PBL binding; remark: listed apart in the source
rhesus CD11a [5] = molecular target: T1, rhesus CD11a; assay: rhesus PBL binding; remark: listed apart in the source

| EC50 F(ab)/EC50 F(ab)-2 (human CD11a [1]) | Var.EC50/HuIgG1 EC50 (rhesus CD11a [2]) | Var.EC50/HuIgG1 EC50 (human CD11a [3]) | Binder | also measured |
| --- | --- | --- | --- | --- |
|  |  |  | HuIgG1 mutant AspH54Glu (antibody, V domains shown, HuIgG1 mutant, human IgG1; Kabat numbering; also called AspH54 change to Glu) VH: EVQLVESGGGLVQPGGSLRLSCAASGYSFTGHWMNWVRQAPGKGLEWVGMIHPSESETRYNQKFKDRFTISVDKSKNTLYLQMNSLRAEDTAVYYCARGIYFYGTTYFDYWGQGTLVTVSS VL: DIQMTQSPSSLSASVGDRVTITCRASKTISKYLAWYQQKPGKAPKLLIYSGSTLQSGVPSRFSGSGSGTDFTLTISSLQPEDFATYYCQQHNEYPLTFGQGTKVEIK | Mutant EC50/HuIgG1 EC50 (human CD11a [1]): 16 ratio |
| 0.004 ratio |  |  | humanized MHM24 F(ab)-8 (Fab, V domains shown, F(ab) from E. coli with human kappa CL and CH1) VH: EVQLVESGGGLVQPGGSLRLSCAASGYSFTGHWMNWVRQAPGKGLEWVGMIHPSDSETRYNQKFKDRFTISVDKSKNTLYLQMNSLRAEDTAVYYCARGIYFYGTTYFDYWGQGTLVTVSS VL: DIQMTQSPSSLSASVGDRVTITCRASKTISKYLAWYQQKPGKAPKLLIYSGSTLQSGVPSRFSGSGSGTDFTLTISSLQPEDFATYYCQQHNEYPLTFGQGTKVEIKR |  |
| 0.043 ratio |  |  | humanized MHM24 F(ab)-5 (Fab, V domains shown, F(ab) from E. coli) VH: EVQLVESGGGLVQPGGSLRLSCAASGFSFTGHWMNWVRQAPGKGLEWVGMIHPSDSETRYNQKFKDRFTISVDKSSSTLYLQMNSLRAEDTAVYYCARGIYFYGTTYFDYWGQGTLVTVSS VL: DIQMTQSPSSLSASVGDRVTITCRASKTISKYLAWYQQKPGKAPKLLIYSGSSLESGVPSRFSGSGSGTDFTLTISSLQPEDFATYYCQQHNEYPLTFGQGTKVEIK | fold improvement in binding over F(ab)-2 (human CD11a [1]): 23 fold |
| 0.012 ratio |  |  | humanized MHM24 F(ab)-6 (Fab, V domains shown, F(ab) from E. coli) VH: EVQLVESGGGLVQPGGSLRLSCAASGFSFTGHWMNWVRQAPGKGLEWVGMIHPSDSETRYNQKFKDRFTISVDKSSSTLYLQMNSLRAEDTAVYYCARGIYFYGTTYFDYWGQGTLVTVSS VL: DIQMTQSPSSLSASVGDRVTITCRASKTISKYLAWYQQKPGKAPKLLIYSGSTLQSGVPSRFSGSGSGTDFTLTISSLQPEDFATYYCQQHNEYPLTFGQGTKVEIK | fold improvement in binding over F(ab)-5 (human CD11a [1]): 4 fold |
| 1.2 ratio |  |  | humanized MHM24 F(ab)-3 (Fab, V domains shown, F(ab) from E. coli; F(ab)-2 plus PheH67Ala) VH: EVQLVESGGGLVQPGGSLRLSCAASGFSFTGHWMNWVRQAPGKGLEWVGMIHPSDSETRYNQKFKDRATISVDNSKNTLYLQMNSLRAEDTAVYYCARGIYFYGTTYFDYWGQGTLVTVSS VL: DIQMTQSPSSLSASVGDRVTITCRASKTISKYLAWYQQKPGKAPKLLIYSGSSLESGVPSRFSGSGSGTDFTLTISSLQPEDFATYYCQQHNEYPLTFGQGTKVEIK |  |
|  | 1.3 ratio | 1.7 ratio | HuIgG1 mutant ThrH30Ala (antibody, V domains shown, HuIgG1 mutant, human IgG1; Kabat numbering) VH: EVQLVESGGGLVQPGGSLRLSCAASGYSFAGHWMNWVRQAPGKGLEWVGMIHPSDSETRYNQKFKDRFTISVDKSKNTLYLQMNSLRAEDTAVYYCARGIYFYGTTYFDYWGQGTLVTVSS VL: DIQMTQSPSSLSASVGDRVTITCRASKTISKYLAWYQQKPGKAPKLLIYSGSTLQSGVPSRFSGSGSGTDFTLTISSLQPEDFATYYCQQHNEYPLTFGQGTKVEIK |  |
|  | 6.7 ratio | 2.9 ratio | HuIgG1 mutant SerH55Gln (antibody, V domains shown, HuIgG1 mutant, human IgG1; Kabat numbering) VH: EVQLVESGGGLVQPGGSLRLSCAASGYSFTGHWMNWVRQAPGKGLEWVGMIHPSDQETRYNQKFKDRFTISVDKSKNTLYLQMNSLRAEDTAVYYCARGIYFYGTTYFDYWGQGTLVTVSS VL: DIQMTQSPSSLSASVGDRVTITCRASKTISKYLAWYQQKPGKAPKLLIYSGSTLQSGVPSRFSGSGSGTDFTLTISSLQPEDFATYYCQQHNEYPLTFGQGTKVEIK |  |
| 2.9 ratio |  |  | humanized MHM24 F(ab)-4 (Fab, V domains shown, F(ab) from E. coli; F(ab)-2 plus ValH71Arg) VH: EVQLVESGGGLVQPGGSLRLSCAASGFSFTGHWMNWVRQAPGKGLEWVGMIHPSDSETRYNQKFKDRFTISRDNSKNTLYLQMNSLRAEDTAVYYCARGIYFYGTTYFDYWGQGTLVTVSS VL: DIQMTQSPSSLSASVGDRVTITCRASKTISKYLAWYQQKPGKAPKLLIYSGSSLESGVPSRFSGSGSGTDFTLTISSLQPEDFATYYCQQHNEYPLTFGQGTKVEIK |  |
|  |  |  | HuIgG1 mutant AspH54Lys (antibody, V domains shown, HuIgG1 mutant, human IgG1; Kabat numbering; also called AspH54 change to Lys) VH: EVQLVESGGGLVQPGGSLRLSCAASGYSFTGHWMNWVRQAPGKGLEWVGMIHPSKSETRYNQKFKDRFTISVDKSKNTLYLQMNSLRAEDTAVYYCARGIYFYGTTYFDYWGQGTLVTVSS VL: DIQMTQSPSSLSASVGDRVTITCRASKTISKYLAWYQQKPGKAPKLLIYSGSTLQSGVPSRFSGSGSGTDFTLTISSLQPEDFATYYCQQHNEYPLTFGQGTKVEIK | Mutant EC50/HuIgG1 EC50 (rhesus CD11a [4]): 3.8 ratio |
| 1 ratio |  |  | humanized MHM24 F(ab)-2 (Fab, V domains shown, F(ab) from E. coli) VH: EVQLVESGGGLVQPGGSLRLSCAASGFSFTGHWMNWVRQAPGKGLEWVGMIHPSDSETRYNQKFKDRFTISVDNSKNTLYLQMNSLRAEDTAVYYCARGIYFYGTTYFDYWGQGTLVTVSS VL: DIQMTQSPSSLSASVGDRVTITCRASKTISKYLAWYQQKPGKAPKLLIYSGSSLESGVPSRFSGSGSGTDFTLTISSLQPEDFATYYCQQHNEYPLTFGQGTKVEIK | EC50 (human CD11a [1]): 0.771 mg/L; fold weaker EC50 than chimeric IgG1 (human CD11a [1]): 148 fold |
|  | 0.3 ratio | 4 ratio | HuIgG1 mutant GluH56Ala (antibody, V domains shown, HuIgG1 mutant, human IgG1; Kabat numbering) VH: EVQLVESGGGLVQPGGSLRLSCAASGYSFTGHWMNWVRQAPGKGLEWVGMIHPSDSATRYNQKFKDRFTISVDKSKNTLYLQMNSLRAEDTAVYYCARGIYFYGTTYFDYWGQGTLVTVSS VL: DIQMTQSPSSLSASVGDRVTITCRASKTISKYLAWYQQKPGKAPKLLIYSGSTLQSGVPSRFSGSGSGTDFTLTISSLQPEDFATYYCQQHNEYPLTFGQGTKVEIK | fold improvement in binding over HuIgG1 (rhesus CD11a [5]): 3 fold |
|  | 1.3 ratio | 1.3 ratio | HuIgG1 mutant SerH55Ala (antibody, V domains shown, HuIgG1 mutant, human IgG1; Kabat numbering) VH: EVQLVESGGGLVQPGGSLRLSCAASGYSFTGHWMNWVRQAPGKGLEWVGMIHPSDAETRYNQKFKDRFTISVDKSKNTLYLQMNSLRAEDTAVYYCARGIYFYGTTYFDYWGQGTLVTVSS VL: DIQMTQSPSSLSASVGDRVTITCRASKTISKYLAWYQQKPGKAPKLLIYSGSTLQSGVPSRFSGSGSGTDFTLTISSLQPEDFATYYCQQHNEYPLTFGQGTKVEIK |  |
|  |  |  | HuIgG1 mutant AspH54Ser (antibody, V domains shown, HuIgG1 mutant, human IgG1; Kabat numbering; also called AspH54 change to Ser) VH: EVQLVESGGGLVQPGGSLRLSCAASGYSFTGHWMNWVRQAPGKGLEWVGMIHPSSSETRYNQKFKDRFTISVDKSKNTLYLQMNSLRAEDTAVYYCARGIYFYGTTYFDYWGQGTLVTVSS VL: DIQMTQSPSSLSASVGDRVTITCRASKTISKYLAWYQQKPGKAPKLLIYSGSTLQSGVPSRFSGSGSGTDFTLTISSLQPEDFATYYCQQHNEYPLTFGQGTKVEIK | Mutant EC50/HuIgG1 EC50 (rhesus CD11a [4]): 0.9 ratio |
| 0.004 ratio |  |  | humanized MHM24 F(ab)-7 (Fab, V domains shown, F(ab) from E. coli) VH: EVQLVESGGGLVQPGGSLRLSCAASGYSFTGHWMNWVRQAPGKGLEWVGMIHPSDSETRYNQKFKDRFTISVDKSSSTLYLQMNSLRAEDTAVYYCARGIYFYGTTYFDYWGQGTLVTVSS VL: DIQMTQSPSSLSASVGDRVTITCRASKTISKYLAWYQQKPGKAPKLLIYSGSTLQSGVPSRFSGSGSGTDFTLTISSLQPEDFATYYCQQHNEYPLTFGQGTKVEIK | fold improvement in binding over F(ab)-6 (human CD11a [1]): 3 fold |
|  | 0.055 ratio | 14.1 ratio | HuIgG1 mutant H2 (antibody, V domains shown, HuIgG1 mutant, human IgG1; Kabat numbering) VH: EVQLVESGGGLVQPGGSLRLSCAASGYSFTGHWMNWVRQAPGKGLEWVGMIAPADAETRYNQKFKDRFTISVDKSKNTLYLQMNSLRAEDTAVYYCARGIYFYGTTYFDYWGQGTLVTVSS VL: DIQMTQSPSSLSASVGDRVTITCRASKTISKYLAWYQQKPGKAPKLLIYSGSTLQSGVPSRFSGSGSGTDFTLTISSLQPEDFATYYCQQHNEYPLTFGQGTKVEIK | fold better binding than HuIgG1 (rhesus CD11a [5]): 18 fold |
